From patent US20230242675A1 (SHANGHAI EPIMAB BIOTHERAPEUTICS, published 2023)
One block for each binder: values may come before it.

Legend:
[1] = biological target: T1, human PD-L1/His fusion protein (human, UniProt Q9NZQ7 19-239); assay: BLI Octet RED96, antibody on AHC sensor, single conc. PD-L1/His; test group 1
Protocol: (§1) All 15 antibodies in Table 13 were assayed for and ranked by dissociation rate constant (koff). […] Briefly, antibodies were characterized for affinities and binding kinetics by Octet®RED96 biolayer interferometry (Pall ForteBio LLC). Antibodies were captured by Anti-hIgG Fc Capture (AHC) Biosensors (Pall) at a concentration of 100 nM for 30 seconds. Sensors were then dipped into running buffer (1×pH 7.2 PBS, 0.05% Tween 20, 0.1% BSA) for 60 seconds to check the baseline. Binding was measured by dipping sensors into a single concentration of recombinant human PD-L1/His fusion protein (Novoprotein). Dissociation was followed by dipping sensors into running buffer for 1200 seconds. The association and dissociation curves were fitted to a 1:1 Langmuir binding model using ForteBio Data Analysis software (Pall). […] The off-rate ratio serves as a data normalization. Accordingly, in each test group, the off-rate ratios of the humanized antibodies can be compared with that of the chimeric antibody, and the off-rate ratios of each of the humanized antibodies can be compared to one another within all test groups.

[2] = biological target: T1, human PD-L1/His fusion protein; assay: BLI off-rate; test group 1
Protocol: as §1

[3] = biological target: T1, human PD-L1/His fusion protein; assay: BLI Octet RED96, antibody on AHC sensor, single conc. PD-L1/His; test group 2
Protocol: as §1

[4] = biological target: T1, human PD-L1/His fusion protein; assay: BLI off-rate; test group 2
Protocol: as §1

[5] = biological target: T1, human PD-L1/His fusion protein; assay: BLI off-rate; test group 3
Protocol: as §1

[6] = biological target: T1, human PD-L1/His fusion protein; assay: BLI Octet RED96, antibody on AHC sensor, single conc. PD-L1/His; test group 3
Protocol: as §1

human TGFβ2 = biological target: T2, human TGFβ2 (human, UniProt P61812 303-414); assay: ELISA: human TGFβ2 coated (1 µg/ml), binding protein titrated 0.0006-10 nM, anti-human IgG Fc-HRP, OD450
T2 construct: also called TGFβ isoform 2; TGFβ2 (Cat. No. CJ79, Novoprotein)
T2 sequence (looked up): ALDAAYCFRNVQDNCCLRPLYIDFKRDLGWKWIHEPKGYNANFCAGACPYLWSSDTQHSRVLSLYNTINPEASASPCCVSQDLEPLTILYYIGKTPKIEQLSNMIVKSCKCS
Protocol: (§2) Accordingly, each of the wells of the ELISA microplates provided a reaction mixture to test the ability of a particular binding protein at a particular concentration to bind to a particular TGFβ isoform. […] Plates were washed three times in washing buffer (PBS containing 0.05% Tween 20) and blocked for 1 hour at 37° C. with 200 μl per well of blocking buffer (1% BSA in PBS containing 0.05% Tween 20). […] The wells containing the various binding mixtures were incubated at 37° C. for 1 hour to permit binding to TGFβ protein on the surface of the wells. Thereafter, the wells were washed four times with washing buffer, and anti-human IgG Fc HRP (Sigma, Catalog No. A0170) was diluted 1:10000 and added to the wells at 100 μl per well to detect binding protein that was bound to TGFβ protein present on the surface of a well. The plates were incubated for 1 hour at 37° C. and washed four times with washing buffer. 100 μl of tetramethylbenzidine (TMB) chromogenic solution were added per well. Following color development, the reaction was stopped with 1 N HCl, and absorbance at 450 nm (OD450) was measured on a VARIOSKAN™ LUX microplate reader (Thermo Scientific™).

human TGFβ1 = biological target: T3, human TGFβ1 (human, UniProt P01137 279-390); assay: ELISA: human TGFβ1 coated (1 µg/ml), binding protein titrated 0.0006-10 nM, anti-human IgG Fc-HRP, OD450
T3 construct: also called TGFβ isoform 1; TGFβ1 (Cat. No. CA59, Novoprotein)
T3 sequence (P01137 279-390 limits assumed): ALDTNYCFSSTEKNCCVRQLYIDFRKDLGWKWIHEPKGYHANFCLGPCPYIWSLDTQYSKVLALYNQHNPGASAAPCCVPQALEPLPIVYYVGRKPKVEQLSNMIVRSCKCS
Protocol: as §2

T1 sequence (Q9NZQ7 19-239 limits assumed): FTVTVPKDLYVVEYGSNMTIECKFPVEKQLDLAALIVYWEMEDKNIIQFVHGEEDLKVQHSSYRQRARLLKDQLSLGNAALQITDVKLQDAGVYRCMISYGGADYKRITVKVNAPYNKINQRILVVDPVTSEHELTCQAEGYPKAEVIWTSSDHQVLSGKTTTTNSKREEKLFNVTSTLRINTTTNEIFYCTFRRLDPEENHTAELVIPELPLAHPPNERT

koff [1]: 0.000957 s⁻¹
Off-Rate Ratio to that of EM0005-86c [2]: 78%
B1: HuEM0005-86-4 (antibody, human IgG1, V domains shown)
VH: EVQLVQSGAEVKKPGASVKVSCKASGYTFTTYGINWVRQAPGQGLEWIGYIYIGNGYTEYNEKFKGRVTLTSDTSTSTAYMELSSLRSDDTAVYYCARDLMVIAPKTMDYWGQGTTVTVSS
VL: DIQMTQSPSSVSASVGDRVTITCKASQDVGTAVAWYQQKPGKAPKLLIYWASTRHTGVPDRFTGSGSGTDFTLTISSLQPEDFATYYCQQYSSYPYTFGGGTKVEIK

koff [3]: 0.0016 s⁻¹
Off-Rate Ratio to that of EM0005-86c [4]: 89%
B2: HuEM0005-86-9 (antibody, human IgG1, V domains shown)
VH: EVQLVQSGAEVKKPGASVKVSCKASGYTFTTYGINWVRQAPGQGLEWMGYIYIGNGYTEYNEKFKGRVTMTSDTSTSTAYMELSSLRSDDTAVYYCARDLMVIAPKTMDYWGQGTTVTVSS
VL: DIQMTQSPSSVSASVGDRVTITCKASQDVGTAVAWYQQKPGKSPKLLIYWASTRHTGVPDRFTGSGSGTDFTLTISSLQPEDFATYFCQQYSSYPYTFGGGTKVEIK

Off-Rate Ratio to that of EM0005-86c [5]: 120%
koff [6]: 0.00124 s⁻¹
B3: HuEM0005-86-5 (antibody, human IgG1, V domains shown)
VH: EVQLVQSGAEVKKPGASVKVSCKASGYTFTTYGINWVRQAPGQGLEWIGYIYIGNGYTEYNEKFKGKATLTSDTSTSTAYMELSSLRSDDTAVYYCARDLMVIAPKTMDYWGQGTTVTVSS
VL: DIQMTQSPSSVSASVGDRVTITCKASQDVGTAVAWYQQKPGKAPKLLIYWASTRHTGVPDRFTGSGSGTDFTLTISSLQPEDFATYYCQQYSSYPYTFGGGTKVEIK

koff [1]: 0.00142 s⁻¹
Off-Rate Ratio to that of EM0005-86c [2]: 115%
B4: HuEM0005-86-3 (antibody, human IgG1, V domains shown)
VH: EVQLVQSGAEVKKPGASVKVSCKASGYTFTTYGINWVRQAPGQGLEWMGYIYIGNGYTEYNEKFKGRVTLTSDTSTSTAYMELSSLRSDDTAVYYCARDLMVIAPKTMDYWGQGTTVTVSS
VL: DIQMTQSPSSVSASVGDRVTITCKASQDVGTAVAWYQQKPGKAPKLLIYWASTRHTGVPDRFTGSGSGTDFTLTISSLQPEDFATYYCQQYSSYPYTFGGGTKVEIK

koff [3]: 0.00131 s⁻¹
Off-Rate Ratio to that of EM0005-86c [4]: 73%
B5: HuEM0005-86-11 (antibody, human IgG1, V domains shown)
VH: EVQLVQSGAEVKKPGASVKVSCKASGYTFTTYGINWVRQAPGQGLEWIGYIYIGNGYTEYNEKFKGRVTLTSDTSTSTAYMELSSLRSDDTAVYYCARDLMVIAPKTMDYWGQGTTVTVSS
VL: DIQMTQSPSSVSASVGDRVTITCKASQDVGTAVAWYQQKPGKSPKLLIYWASTRHTGVPDRFTGSGSGTDFTLTISSLQPEDFATYFCQQYSSYPYTFGGGTKVEIK

Off-Rate Ratio to that of EM0005-86c [5]: 116%
koff [6]: 0.00119 s⁻¹
B6: HuEM0005-86-13 (antibody, human IgG1, V domains shown)
VH: EVQLVQSGAEVKKPGASVKVSCKTSGYTFTTYGINWVRQAPGQGLEWIGYIYIGNGYTEYNEKFKGKATLTSDPSTRTAYMELSSLRSDDTAVYYCARDLMVIAPKTMDYWGQGTTVTVSS
VL: DIQMTQSPSSVSASVGDRVTITCKASQDVGTAVAWYQQKPGKSPKLLIYWASTRHTGVPDRFTGSGSGTDFTLTISSLQPEDFATYFCQQYSSYPYTFGGGTKVEIK

koff [3]: 0.00157 s⁻¹
Off-Rate Ratio to that of EM0005-86c [4]: 88%
B7: HuEM0005-86-10 (antibody, human IgG1, V domains shown)
VH: EVQLVQSGAEVKKPGASVKVSCKASGYTFTTYGINWVRQAPGQGLEWMGYIYIGNGYTEYNEKFKGRVTLTSDTSTSTAYMELSSLRSDDTAVYYCARDLMVIAPKTMDYWGQGTTVTVSS
VL: DIQMTQSPSSVSASVGDRVTITCKASQDVGTAVAWYQQKPGKSPKLLIYWASTRHTGVPDRFTGSGSGTDFTLTISSLQPEDFATYFCQQYSSYPYTFGGGTKVEIK

koff [1]: 0.000887 s⁻¹
Off-Rate Ratio to that of EM0005-86c [2]: 72%
B8: HuEM0005-86-2 (antibody, human IgG1, V domains shown)
VH: EVQLVQSGAEVKKPGASVKVSCKASGYTFTTYGINWVRQAPGQGLEWMGYIYIGNGYTEYNEKFKGRVTMTSDTSTSTAYMELSSLRSDDTAVYYCARDLMVIAPKTMDYWGQGTTVTVSS
VL: DIQMTQSPSSVSASVGDRVTITCKASQDVGTAVAWYQQKPGKAPKLLIYWASTRHTGVPDRFTGSGSGTDFTLTISSLQPEDFATYYCQQYSSYPYTFGGGTKVEIK

koff [3]: 0.0015 s⁻¹
Off-Rate Ratio to that of EM0005-86c [4]: 84%
B9: HuEM0005-86-12 (antibody, human IgG1, V domains shown)
VH: EVQLVQSGAEVKKPGASVKVSCKASGYTFTTYGINWVRQAPGQGLEWIGYIYIGNGYTEYNEKFKGKATLTSDTSTSTAYMELSSLRSDDTAVYYCARDLMVIAPKTMDYWGQGTTVTVSS
VL: DIQMTQSPSSVSASVGDRVTITCKASQDVGTAVAWYQQKPGKSPKLLIYWASTRHTGVPDRFTGSGSGTDFTLTISSLQPEDFATYFCQQYSSYPYTFGGGTKVEIK

koff [1]: 0.00122 s⁻¹
Off-Rate Ratio to that of EM0005-86c [2]: 99%
B10: HuEM0005-86-6 (antibody, human IgG1, V domains shown)
VH: EVQLVQSGAEVKKPGASVKVSCKTSGYTFTTYGINWVRQAPGQGLEWIGYIYIGNGYTEYNEKFKGKATLTSDPSTRTAYMELSSLRSDDTAVYYCARDLMVIAPKTMDYWGQGTTVTVSS
VL: DIQMTQSPSSVSASVGDRVTITCKASQDVGTAVAWYQQKPGKAPKLLIYWASTRHTGVPDRFTGSGSGTDFTLTISSLQPEDFATYYCQQYSSYPYTFGGGTKVEIK
notes: measured without the G55A change

koff [1]: 0.00147 s⁻¹
Off-Rate Ratio to that of EM0005-86c [2]: 120%
B11: HuEM0005-86-1 (antibody, human IgG1, V domains shown)
VH: EVQLVQSGAEVKKPGASVKVSCKASGYTFTTYGINWVRQAPGQGLEWMGYIYIGNGYTEYNEKFKGRVTMTTDTSTSTAYMELSSLRSDDTAVYYCARDLMVIAPKTMDYWGQGTTVTVSS
VL: DIQMTQSPSSVSASVGDRVTITCKASQDVGTAVAWYQQKPGKAPKLLIYWASTRHTGVPDRFTGSGSGTDFTLTISSLQPEDFATYYCQQYSSYPYTFGGGTKVEIK

Off-Rate Ratio to that of EM0005-86c [5]: 81%
koff [6]: 0.000838 s⁻¹
B12: HuEM0005-86-14 (antibody, human IgG1, V domains shown)
VH: EVQLVQSGAEVKKPGASVKVSCKASGYTFTTYGINWVRQAPGQGLEWIGYIYIGNGYTEYNEKFKGRVTLTSDPSTRTAYMELSSLRSDDTAVYYCARDLMVIAPKTMDYWGQGTTVTVSS
VL: DIQMTQSPSSVSASVGDRVTITCKASQDVGTAVAWYQQKPGKSPKLLIYWASTRHTGVPDRFTGSGSGTDFTLTISSLQPEDFATYFCQQYSSYPYTFGGGTKVEIK

EC50 (human TGFβ2): 3.6 nM
EC50 (human TGFβ1): 0.696 nM
B13: bintrafusp alfa (bispecific antibody, human IgG1, lambda)
heavy: not shown
light: QSALTQPASVSGSPGQSITISCTGTSSDVGGYNYVSWYQQHPGKAPKLMIYDVSNRPSGVSNRFSGSKSGNTASLTISGLQAEDEADYYCSSYTSSSTRVFGTGTKVTVLGQPKANPTVTLFPPSSEELQANKATLVCLISDFYPGAVTVAWKADGSPVKAGVETTKPSKQSNNKYAASSYLSLTPEQWKSHRSYSCQVTHEGSTVEKTVAPTECS
notes: also called M7824; Bintrafusp alfa protein

Off-Rate Ratio to that of EM0005-86c [5]: 108%
koff [6]: 0.00111 s⁻¹
B14: EM0005-86c-G55A (antibody, human IgG1, V domains shown)
VH: QVQLQQSGAELVRPGSSVKMSCKTSGYTFTTYGINWVKQRPGQGLEWIGYIYIGNAYTEYNEKFKGKATLTSDPSSRTAYMQLSSLTSEDSAIYFCARDLMVIAPKTMDYWGQGTSVTVSS
VL: DIQMNQSHKFMSTSVGDRVSITCKASQDVGTAVAWYQQKPGQSPKLLIYWASTRHTGVPDRFTGGGSGTDFTLTISNVQSEDLADYFCQQYSSYPYTFGGGTKLEMK
notes: Chimeric antibody with G55A (Kabat) in CDR-H2; also called HuEM0005-86-G55A
